Measured values reported in US20230392126A1, “TISSUE ORGANOIDS” (priority 2016, published 2023).

Key:
[1] = Cocaine hydrolysis activity in vitro (clearance assay with conditioned medium)
[2] = Ethanol-induced CPP in GLP1 and GWT mice; type: in vivo, mouse; details: 2 g/kg ethanol i.p., dox food, vs mock grafted (GWT)
From the text: FIG. 26. mGLP1 expression on ethanol-induced CPP. […] Following 2 free explorations (Pre-test) on day 1, separate groups of GLP1 and GWT mice (n=9 each) received alternative ethanol (2 g/kg) and saline i.p. injections twice daily for the next 4 days, as previously described (Chen et al., Dopamine D1 and D3 receptors are differentially involved in cue-elicited cocaine seeking. J. Neurochem. 114, 530-541 (2010); Kong et al., Activation of dopamine D3 receptors inhibits reward-related learning induced by cocaine. Neurosci. 176, 152-161 (2011)). CPP expression was tested on day 6. Results represent mean±SEM time spent on the drug-paired side minus the saline-paired side. […] F value was calculated and Newman-Keuls post-hoc test was performed (Chen et al., 2010; Kong et al., 2011). […]
(§1) Following 2 free explorations (Pre-test) on day 1, separate groups of GLP1 and GWT mice (n=9 each) received alternative ethanol (2 g/kg) and saline i.p. injections twice daily for the next 4 days, as previously described (Chen et al., Dopamine D1 and D3 receptors are differentially involved in cue-elicited cocaine seeking. J. Neurochem. 114, 530-541 (2010); Kong et al., Activation of dopamine D3 receptors inhibits reward-related learning induced by cocaine. Neurosci. 176, 152-161 (2011)). […] F value was calculated and Newman-Keuls post-hoc test was performed (Chen et al., 2010; Kong et al., 2011). […]

[3] = mGLP1 expression in blood/plasma of grafted mice fed dox food; type: in vivo, mouse
Experimental: The epidermal progenitor cells were isolated from newborn pups of CD1 or C57BL/6J mice. […] Targeted clones were selected in the medium containing puromycin, and correct incorporation into the Rosa26 locus was confirmed by PCR and southern blots (FIG. 25B). Mouse skin substitute was prepared by seeding the targeted cells to the acellularized newborn dermis and differentiation upon exposure to the air/liquid interphase and the resultant tissues were transplanted to CD1 or C57BL/6J mice (GLP1).
Expression of mGLP1 in GLP1 mice was stable for up to 4 months in the presence of dox (FIG. 25D).
There was a dose-dependent release of GLP1 in plasma (not shown). Expression of mGLP1 in mGLP1 mice was stable for up to 4 months in the presence of dox (FIG. 25D).

[4] = Nicotine-induced CPP in GLP1 and GWT mice; type: in vivo, mouse; details: 0.4 mg/kg nicotine i.p., dox food, vs GWT
Experimental: FIG. 29 mGLP1 expression on nicotine-induced CPP. […] Following 2 free explorations (Pre-test) on day 1, separate groups of GLP1 and GWT mice (n=7 each) received alternative nicotine (0.4 mg/kg) and saline i.p. injections twice daily for the next 4 days, as previously described (Chen et al., 2010; Kong et al., 2011). CPP expression was tested on day 6. Results represent mean±SEM time spent on the drug-paired side minus the saline-paired side. Repeated-measures ANOVA with test days as the within group factor and status of grafting as the between-subject factor were used (Chen et al., 2010; Kong et al., 2011). F value was calculated and Newman-Keuls post-hoc test was performed (Chen et al., 2010; Kong et al., 2011). GLP1 and WT mice were on dox food for the entire duration.
as §1, with “mGLP1” for “GLP1”, “(n=7” for “mice (n=9”, “nicotine (0.4 mg/kg)” for “ethanol (2 g/kg)”

[5] = system: epidermal progenitor cells; experiment: Suicide gene-induced cell death in epidermal progenitor cells upon prodrug treatment; type: cell-based; details: ganciclovir and 5-fluorocytosine, respectively; data not shown
From the text: To test this possibility, a Rosa26 targeting vector encoding phenylalanine ammonia lyase (PAL) (SEQ ID NO: 51) together with inducible “suicide” genes HSV-TK (Herpes Simplex Virus Thymidine Kinase) (SEQ ID NO: 52) and yCD (yeast cytosine deaminase) (SEQ ID NO: 53) was used for epidermal progenitor cell transfection.

B1: mBChE: mouse BChE with similar point mutations (SEQ ID NO: 43) (protein)
chain: MQTQHTKVTQTHFLLWILLLCMPFGKSHTEEDFIITTKTGRVRGLSMPVLGGTVTAFLGIPYAQPPLGSLRFKKPQPLNKWPDIHNATQYANSCYQNIDQAFPGFQGSEMWNPNTNLSEDCLYLNVWIPVPKPKNATVMVWIYGGGFQTGTSSLPVYDGKFLARVERVIVVSMNYRVGALGFLAFPGNPDAPGNMGLFDQQLALQWVQRNIAAFGGNPKSITIFGESSGAASVSLHLLCPQSYPLFTRAILESGSANAPWAVKHPEEARNRTLTLAKFTGCSKENEMEMIKCLRSKDPQEILRNERFVLPSDSALGINFGPTVDGDFLTDMPHTLLQLGKVKKAQILVGVNKDEGTWFLVGGAPGFSKDNDSLITRKEFQEGLNMYFPGVSRLGKEAVLFYYVDWLGEQSPEVYRDALDDVIGDYNIICPALEFTKKFAELENNAFFYFFEHRSSKLPWPEWMGVMHGYEIEFVFGLPLGRRVNYTRAEEIFSRSIMKTWANFAKYGHPNGTQGNSTMWPVFTSTEQKYLTLNTEKSKIYSKLRAPQCQFWRLFFPKVLEMTGDIDETEQEWKAGFHRWSNYMMDWQNQFNDYTSKKESCTAL
modifications: Mouse mutant BChE
cocaine hydrolysis activity of conditioned medium [1]: only residual activity in cocaine hydrolysis

B2: mGLP1: Gly8-mutant mGLP1 and mouse IgG-Fc fragment fusion protein (SEQ ID NO: 45), dox-dependent promoter, from skin grafts (protein)
chain: MYRMQLLSCIALSLALVTNSHGEGTFTSDVSSYLEGQAAKEFIAWLVKGRGRSGCKPCICTVPEVSSVFIFPPKPKDVLTITLTPKVTCVVVDISKDDPEVQFSWFVDDVEVHTAQTQPREEQFNSTFRSVSELPIMHQDWLNGKEFKCRVNSAAFPAPIEKTISKTKGRPKAPQVYTIPPPKEQMAKDKVSLTCMITDFFPEDITVEWQWNGQPAENYKNTQPIMDTDGSYFVYSKLNVQKSNWEAGNTFTCSVLHEGLHNHHTEKSLSHSPGK
modifications: mGLP-1 (GLY8 mutant with IgG-Fc fusion)
ethanol-induced CPP [2]: attenuated ethanol-induced CPP | time to significantly enhanced levels of mGLP1 in the blood ([3]; dox food): ≤ 3 days | duration of stable mGLP1 expression ([3]; in the presence of dox): up to 4 months | release of mGLP1 in plasma vs dox dose ([3]; not shown): dose-dependent release of mGLP1 in plasma | nicotine-induced CPP [4]: attenuated nicotine-induced CPP

B3: yCD: inducible suicide gene, yeast cytosine deaminase (SEQ ID NO: 53), prodrug 5-fluorocytosine (protein)
chain: MVTGGMASKWDQKGMDIAYEEAALGYKEGGVPIGGCLINNKDGSVLGRGHNMRFQKGSATLHGEISTLENCGRLEGKVYKDTTLYTTLSPCDMCTGAIIMYGIPRCVVGENVNFKSKGEKYLQTRGHEVVVVDDERCKKIMKQFIDERPQDWFEDIGE
modifications: misc_feature 1..474 yCD
cell death upon prodrug treatment [5]: efficiently induced cell death upon treatment with prodrugs
